According to the supplement of paper PMC10567573:

B1: CCND1 (parent)
chain: PEAEENKQIIRKHAQTFVALCATD

Variants of: B1
Assay: protein stability index of a GFP-peptide fusion (GPS, HEK-293T) (PSI 1-6); higher = more stable
Details: c terminus: a fixed tail appended
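Note: lentivirally expressed fusions sorted by FACS into six bins by GFP to DsRed ratio, PSI derived from sequencing read proportions per bin multiplied by bin number.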

Q: Which protein stability index does the source give for PEAEENKQIIIKHAQTFVALCATD here?
A: 2.84

Q: With PEAEENKQIINKHAQTFVALCATD as the variant, how does the protein stability index read?
A: 3.59

Q: With PEAEENKQIIYKHAQTFVALCATD as the variant, how does the protein stability index read?
A: 2.88

Q: Which protein stability index does the source give for PEAEENKQIIFKHAQTFVALCATD here?
A: 2.64

Q: Which protein stability index does the source give for PEAEENKQIIPKHAQTFVALCATD here?
A: 3.28

Q: With PEAEENKQIIWKHAQTFVALCATD as the variant, how does the protein stability index read?
A: 2.6

Q: Which protein stability index does the source give for PEAEENKQIIQKHAQTFVALCATD here?
A: 3.61

Q: With PEAEENKQIIDKHAQTFVALCATD as the variant, how does the protein stability index read?
A: 4.11

Q: With PEAEENKQIISKHAQTFVALCATD as the variant, how does the protein stability index read?
A: 2.62

Q: For PEAEENKQIIVKHAQTFVALCATD, which protein stability index is on record?
A: 3.14

Q: With PEAEENKQIIAKHAQTFVALCATD as the variant, how does the protein stability index read?
A: 3.58

Q: Which protein stability index does the source give for PEAEENKQIIMKHAQTFVALCATD here?
A: 2.71

Q: With PEAEENKQIIKKHAQTFVALCATD as the variant, how does the protein stability index read?
A: 2.9

Q: Which protein stability index does the source give for PEAEENKQIIHKHAQTFVALCATD here?
A: 3.33

Q: With PEAEENKQIIGKHAQTFVALCATD as the variant, how does the protein stability index read?
A: 3.16

Q: Which protein stability index does the source give for PEAEENKQIIEKHAQTFVALCATD here?
A: 3.76

Q: For PEAEENKQIITKHAQTFVALCATD, which protein stability index is on record?
A: 3.47

Q: With PEAEENKQIICKHAQTFVALCATD as the variant, how does the protein stability index read?
A: 2.94

Q: With PEAEENKQIIRKHAQYFVALCATD as the variant, how does the protein stability index read?
A: 3.58

Q: With PEAEENKQIIRKHAQVFVALCATD as the variant, how does the protein stability index read?
A: 3.85

Q: Which protein stability index does the source give for PEAEENKQIIRKHAQMFVALCATD here?
A: 3.86

Q: With PEAEENKQIIRKHAQEFVALCATD as the variant, how does the protein stability index read?
A: 5.27

Q: Which protein stability index does the source give for PEAEENKQIIRKHAQHFVALCATD here?
A: 4.35

Q: For PEAEENKQIIRKHAQIFVALCATD, which protein stability index is on record?
A: 3.35

Q: For PEAEENKQIIRKHAQPFVALCATD, which protein stability index is on record?
A: 4.62

Q: Which protein stability index does the source give for PEAEENKQIIRKHAQAFVALCATD here?
A: 4.71

Q: Which protein stability index does the source give for PEAEENKQIIRKHAQNFVALCATD here?
A: 4.61

Q: Which protein stability index does the source give for PEAEENKQIIRKHAQSFVALCATD here?
A: 3.2

Q: Which protein stability index does the source give for PEAEENKQIIRKHAQRFVALCATD here?
A: 4.25

Q: For PEAEENKQIIRKHAQQFVALCATD, which protein stability index is on record?
A: 4.13

Q: For PEAEENKQIIRKHAQLFVALCATD, which protein stability index is on record?
A: 3.51

Q: For PEAEENKQIIRKHAQKFVALCATD, which protein stability index is on record?
A: 4.7

Q: Which protein stability index does the source give for PEAEENKQIIRKHAQDFVALCATD here?
A: 4.81

Q: For PEAEENKQIIRKHAQWFVALCATD, which protein stability index is on record?
A: 2.85

Q: With PEAEENKQIIRKHAQGFVALCATD as the variant, how does the protein stability index read?
A: 3.88

Q: Which protein stability index does the source give for PEAEENKQIIRKHAQFFVALCATD here?
A: 3.37

Q: For PEAEENKQIIRKHAQCFVALCATD, which protein stability index is on record?
A: 3.55

Q: Which protein stability index does the source give for PEAEENKQIIRKHEQTFVALCATD here?
A: 3.45

Q: With PEAEENKQIIRKHIQTFVALCATD as the variant, how does the protein stability index read?
A: 2.29

Q: For PEAEENKQIIRKHFQTFVALCATD, which protein stability index is on record?
A: 2.79

Q: With PEAEENKQIIRKHGQTFVALCATD as the variant, how does the protein stability index read?
A: 3.71

Q: With PEAEENKQIIRKHDQTFVALCATD as the variant, how does the protein stability index read?
A: 3.71

Q: For PEAEENKQIIRKHVQTFVALCATD, which protein stability index is on record?
A: 2.3

Q: For PEAEENKQIIRKHRQTFVALCATD, which protein stability index is on record?
A: 1.85

Q: With PEAEENKQIIRKHPQTFVALCATD as the variant, how does the protein stability index read?
A: 2.64

Q: For PEAEENKQIIRKHTQTFVALCATD, which protein stability index is on record?
A: 2.33

Q: With PEAEENKQIIRKHNQTFVALCATD as the variant, how does the protein stability index read?
A: 3.77

Q: Which protein stability index does the source give for PEAEENKQIIRKHQQTFVALCATD here?
A: 2.28

Q: For PEAEENKQIIRKHHQTFVALCATD, which protein stability index is on record?
A: 2.62

Q: With PEAEENKQIIRKHMQTFVALCATD as the variant, how does the protein stability index read?
A: 2.97

Q: With PEAEENKQIIRKHCQTFVALCATD as the variant, how does the protein stability index read?
A: 2.72

Q: With PEAEENKQIIRKHSQTFVALCATD as the variant, how does the protein stability index read?
A: 2.96

Q: Which protein stability index does the source give for PEAEENKQIIRKHKQTFVALCATD here?
A: 2.38

Q: With PEAEENKQIIRKHLQTFVALCATD as the variant, how does the protein stability index read?
A: 2.18

Q: Which protein stability index does the source give for PEAEENKQIIRKHWQTFVALCATD here?
A: 1.94

Q: Which protein stability index does the source give for PEAEENKQIIRKHYQTFVALCATD here?
A: 2.44

Q: With PEAEENKQIIRKHAVTFVALCATD as the variant, how does the protein stability index read?
A: 2.84

Q: With PEAEENKQIIRKHAYTFVALCATD as the variant, how does the protein stability index read?
A: 2.01

Q: Which protein stability index does the source give for PEAEENKQIIRKHAFTFVALCATD here?
A: 2.07

Q: Which protein stability index does the source give for PEAEENKQIIRKHAHTFVALCATD here?
A: 2.97

Q: Which protein stability index does the source give for PEAEENKQIIRKHASTFVALCATD here?
A: 3.52

Q: Which protein stability index does the source give for PEAEENKQIIRKHADTFVALCATD here?
A: 3.66

Q: Which protein stability index does the source give for PEAEENKQIIRKHAATFVALCATD here?
A: 3.45

Q: Which protein stability index does the source give for PEAEENKQIIRKHAMTFVALCATD here?
A: 2.59

Q: Which protein stability index does the source give for PEAEENKQIIRKHACTFVALCATD here?
A: 2.84

Q: With PEAEENKQIIRKHAKTFVALCATD as the variant, how does the protein stability index read?
A: 2.04

Q: Which protein stability index does the source give for PEAEENKQIIRKHAETFVALCATD here?
A: 3.63

Q: Which protein stability index does the source give for PEAEENKQIIRKHAITFVALCATD here?
A: 2.33

Q: Which protein stability index does the source give for PEAEENKQIIRKHAGTFVALCATD here?
A: 3.11

Q: Which protein stability index does the source give for PEAEENKQIIRKHANTFVALCATD here?
A: 3.41

Q: With PEAEENKQIIRKHARTFVALCATD as the variant, how does the protein stability index read?
A: 2.32

Q: Which protein stability index does the source give for PEAEENKQIIRKHAWTFVALCATD here?
A: 2.16

Q: For PEAEENKQIIRKHAPTFVALCATD, which protein stability index is on record?
A: 3.48

Q: Which protein stability index does the source give for PEAEENKQIIRKHALTFVALCATD here?
A: 2.49

Q: With PEAEENKQIIRKHATTFVALCATD as the variant, how does the protein stability index read?
A: 3.18

Q: For PEAEENKQIERKHAQTFVALCATD, which protein stability index is on record?
A: 3.64

Q: With PEAEENKQIARKHAQTFVALCATD as the variant, how does the protein stability index read?
A: 2.79

Q: For PEAEENKQIWRKHAQTFVALCATD, which protein stability index is on record?
A: 3.22

Q: With PEAEENKQITRKHAQTFVALCATD as the variant, how does the protein stability index read?
A: 3.04

Q: For PEAEENKQIKRKHAQTFVALCATD, which protein stability index is on record?
A: 2.92

Q: For PEAEENKQIHRKHAQTFVALCATD, which protein stability index is on record?
A: 3.5

Q: With PEAEENKQIDRKHAQTFVALCATD as the variant, how does the protein stability index read?
A: 3.14

Q: Which protein stability index does the source give for PEAEENKQISRKHAQTFVALCATD here?
A: 2.53

Q: With PEAEENKQIGRKHAQTFVALCATD as the variant, how does the protein stability index read?
A: 2.53

Q: With PEAEENKQIMRKHAQTFVALCATD as the variant, how does the protein stability index read?
A: 3.5

Q: With PEAEENKQIQRKHAQTFVALCATD as the variant, how does the protein stability index read?
A: 2.81

Q: With PEAEENKQINRKHAQTFVALCATD as the variant, how does the protein stability index read?
A: 3.04

Q: For PEAEENKQIVRKHAQTFVALCATD, which protein stability index is on record?
A: 3.39

Q: With PEAEENKQICRKHAQTFVALCATD as the variant, how does the protein stability index read?
A: 3.13

Q: For PEAEENKQILRKHAQTFVALCATD, which protein stability index is on record?
A: 3.48

Q: For PEAEENKQIRRKHAQTFVALCATD, which protein stability index is on record?
A: 3.19

Q: With PEAEENKQIPRKHAQTFVALCATD as the variant, how does the protein stability index read?
A: 3.14

Q: For PEAEENKQIFRKHAQTFVALCATD, which protein stability index is on record?
A: 2.48

Q: For PEAEENKQIYRKHAQTFVALCATD, which protein stability index is on record?
A: 2.29
